# B1: GpH7-A5/GpH7-B3 variant G237_11K/GpL16-k0 (antibody, human IgG1, kappa)
# heavy 1: not shown
# heavy 2: not shown
# light: DIVMTQSPLSLPVTPGEPASISCQASESLVHSNRNTYLHWYLQKPGQSPQLLIYKVSNRFSGVPDRFSGSGSGTDFTLKISRVEAEDVGVYYCSQNTHVPPTFGQGTKVEIERTVAAPSVFIFPPSDEQLKSGTASVVCLLNNFYPREAKVQWKVDNALQSGNSQESVTEQDSKDSTYSLSSTLTLSKADYEKHKVYACEVTHQGLSSPVTKSFNRGEC
# notes: Heterodimerized anti-glypican-3 IgG1; mutation only in the GpH7-B3 H chain; also called He Ab
# B2: GpH7-A5/GpH7-B3 variant G237_12R/GpL16-k0 (antibody, human IgG1, kappa)
# heavy 1: not shown
# heavy 2: not shown
# light: B1 light
# notes: as for B1
# B3: GpH7-A5/GpH7-B3 variant G237_12R/GpL16-k0 (antibody, human IgG1, kappa)
# heavy 1: not shown
# heavy 2: not shown
# light: B1 light
# notes: Heterodimerized anti-glypican-3 IgG1; mutation in one H chain only; also called He Ab
# B4: GpH7-A5/GpH7-B3 variant G237_11K/GpL16-k0 (antibody, human IgG1, kappa)
# heavy 1: not shown
# heavy 2: not shown
# light: B1 light
# notes: as for B3
# B5: GpH7-A5/GpH7-B3 variant G236_03V/GpL16-k0 (antibody, human IgG1, kappa)
# heavy 1: not shown
# heavy 2: not shown
# light: B1 light
# notes: also called He Ab
# B6: GpH7-A5/GpH7-B3 variant G236_20W/GpL16-k0 (antibody, human IgG1, kappa)
# heavy 1: not shown
# heavy 2: not shown
# light: B1 light
# notes: also called He Ab; GpH7-A5/GpH7-B3-03-20W/GpL16-k0
# B7: GpH7-A5/GpH7-B3 variant E269_02A/GpL16-k0 (antibody, human IgG1, kappa)
# heavy 1: not shown
# heavy 2: not shown
# light: B1 light
# notes: also called He Ab
# B8: GpH7-A5/GpH7-B3 variant L235_05P/GpL16-k0 (antibody, human IgG1, kappa)
# heavy 1: not shown
# heavy 2: not shown
# light: B1 light
# notes: also called He Ab
# B9: GpH7-A5/GpH7-B3 variant L234_07I/GpL16-k0 (antibody, human IgG1, kappa)
# heavy 1: not shown
# heavy 2: not shown
# light: B1 light
# notes: also called He Ab
# B10: GpH7-A5/GpH7-B3 variant L235_03V/GpL16-k0 (antibody, human IgG1, kappa)
# heavy 1: not shown
# heavy 2: not shown
# light: B1 light
# notes: also called He Ab
# B11: GpH7-A5/GpH7-B3 variant G236_15Y/GpL16-k0 (antibody, human IgG1, kappa)
# heavy 1: not shown
# heavy 2: not shown
# light: B1 light
# notes: also called He Ab
# B12: GpH7-A5/GpH7-B3 variant H268_06M/GpL16-k0 (antibody, human IgG1, kappa)
# heavy 1: not shown
# heavy 2: not shown
# light: B1 light
# notes: also called He Ab
# B13: GpH7-A5/GpH7-B3 variant L234_11K/GpL16-k0 (antibody, human IgG1, kappa)
# heavy 1: not shown
# heavy 2: not shown
# light: B1 light
# notes: also called He Ab
# B14: GpH7-A5/GpH7-B3 variant G236_04F/GpL16-k0 (antibody, human IgG1, kappa)
# heavy 1: not shown
# heavy 2: not shown
# light: B1 light
# notes: also called He Ab
# B15: GpH7-A5/GpH7-B3 variant L234_19Q/GpL16-k0 (antibody, human IgG1, kappa)
# heavy 1: not shown
# heavy 2: not shown
# light: B1 light
# notes: also called He Ab
# B16: GpH7-A5/GpH7-B3 variant G236_12R/GpL16-k0 (antibody, human IgG1, kappa)
# heavy 1: not shown
# heavy 2: not shown
# light: B1 light
# notes: also called He Ab
# B17: GpH7-A5/GpH7-B3 variant G236_07I/GpL16-k0 (antibody, human IgG1, kappa)
# heavy 1: not shown
# heavy 2: not shown
# light: B1 light
# notes: also called He Ab
# B18: GpH7-A5/GpH7-B3 variant L234_16H/GpL16-k0 (antibody, human IgG1, kappa)
# heavy 1: not shown
# heavy 2: not shown
# light: B1 light
# notes: also called He Ab
# B19: GpH7-A5/GpH7-B3 variant E269_01G/GpL16-k0 (antibody, human IgG1, kappa)
# heavy 1: not shown
# heavy 2: not shown
# light: B1 light
# notes: also called He Ab
# B20: GpH7-A5/GpH7-B3 variant G236_08L/GpL16-k0 (antibody, human IgG1, kappa)
# heavy 1: not shown
# heavy 2: not shown
# light: B1 light
# notes: also called He Ab
# B21: GpH7-A5/GpH7-B3 variant G236_05P/GpL16-k0 (antibody, human IgG1, kappa)
# heavy 1: not shown
# heavy 2: not shown
# light: B1 light
# notes: also called He Ab
# B22: GpH7-A5/GpH7-B3 variant G236_16H/GpL16-k0 (antibody, human IgG1, kappa)
# heavy 1: not shown
# heavy 2: not shown
# light: B1 light
# notes: also called He Ab
# B23: GpH7-A5/GpH7-B3 variant L235_01G/GpL16-k0 (antibody, human IgG1, kappa)
# heavy 1: not shown
# heavy 2: not shown
# light: B1 light
# notes: also called He Ab
# B24: GpH7-A5/GpH7-B3 variant L234_12R/GpL16-k0 (antibody, human IgG1, kappa)
# heavy 1: not shown
# heavy 2: not shown
# light: B1 light
# notes: also called He Ab
# B25: GpH7-A5/GpH7-B3 variant L234_05P/GpL16-k0 (antibody, human IgG1, kappa)
# heavy 1: not shown
# heavy 2: not shown
# light: B1 light
# notes: also called He Ab
# B26: GpH7-A5/GpH7-B3 variant L234_15Y/GpL16-k0 (antibody, human IgG1, kappa)
# heavy 1: not shown
# heavy 2: not shown
# light: B1 light
# notes: also called He Ab; GpH7-A5/GpH7-B3-01-15Y/GpL16-k0
# B27: GpH7-A5/GpH7-B3 variant L235_12R/GpL16-k0 (antibody, human IgG1, kappa)
# heavy 1: not shown
# heavy 2: not shown
# light: B1 light
# notes: also called He Ab
# B28: GpH7-A5/GpH7-B3 variant L234_03V/GpL16-k0 (antibody, human IgG1, kappa)
# heavy 1: not shown
# heavy 2: not shown
# light: B1 light
# notes: also called He Ab
# Molecular target: T1, FcγRIa extracellular domain with C-terminal His tag (human, UniProt P12314 16-292)
# T1 construct: extracellular domain; also called FcgRI; CD64; not shown: His tag at the C terminus
# T1 sequence (P12314 16-292): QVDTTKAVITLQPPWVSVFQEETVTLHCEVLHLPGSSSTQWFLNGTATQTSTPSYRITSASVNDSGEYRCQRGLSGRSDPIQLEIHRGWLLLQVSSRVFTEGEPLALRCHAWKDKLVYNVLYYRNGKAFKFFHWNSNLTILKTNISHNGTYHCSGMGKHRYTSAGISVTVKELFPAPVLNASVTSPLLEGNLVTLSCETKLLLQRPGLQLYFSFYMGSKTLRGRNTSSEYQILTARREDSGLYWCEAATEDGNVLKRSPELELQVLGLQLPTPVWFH
# Assay: SPR; He/Con_1a divided by He/Con_2b (FcγRIa against FcγRIIb)
row,Binder,He_1a/2b (Ia/IIb)
1,B1,7.05 ratio
2,B2,6.71 ratio

# Molecular target: T2, FcγRIIa R (human, UniProt P12318 34-217)
# T2 construct: extracellular domain; also called FcgRIIa R; FcγRIIa type R; not shown: His tag at the C terminus
# T2 sequence (looked up): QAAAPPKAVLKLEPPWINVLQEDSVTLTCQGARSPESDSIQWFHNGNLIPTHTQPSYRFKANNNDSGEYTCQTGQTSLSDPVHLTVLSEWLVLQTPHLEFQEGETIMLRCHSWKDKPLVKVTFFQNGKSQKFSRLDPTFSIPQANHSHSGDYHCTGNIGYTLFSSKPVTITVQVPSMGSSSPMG
# Assay: SPR (Biacore T100), antibody captured on antigen peptide chip, FcγR as analyte; binding relative to GpH7-A5/GpH7-B3/GpL16-k0 = 100
# Protocol: (§1) The heterodimerized antibodies He Abs in which one of the H chains was introduced with an alteration were assayed for their binding activities to each activating FcγR and inhibitory FcγR according to the method described in Example 4. […] The activating FcγRs in FIGS. 26, 27, 28, and 29 are FcγRIa, FcγRIIa (R), FcγRIIa (H), and FcγRIIIa, respectively.
# (§2) Analysis of interaction between objective antibody and the FcγR was carried out using Biacore T100 (GE Healthcare). HBS-EP+ (GE Healthcare) was used as the running buffer, and the measurement temperature was set to 25° C. Chips produced by immobilizing the antigen peptide by the amine coupling method to a Series S Sencor Chip CM5 (GE Healthcare), or alternatively, chips produced by allowing preliminarily biotinylated antigen peptides to interact with and immobilize onto a Series S Sensor Chip SA (certified) (GE Healthcare) were used. Antibodies of interest were captured onto an antigen peptide-immobilized chip, and allowed to interact to each FcγR diluted with running buffer. To regenerate and repeatedly use the chip, the antibodies captured on the chip were washed off by reacting 10 mM glycine-HCl, pH 1.5.
row,Binder,He/Con_2aR (IIaR binding)
1,B3,24.2 % of control
2,B4,17.1 % of control

# Molecular target: T3, FcγRIIIa extracellular domain with C-terminal His tag (human, UniProt P08637 17-208)
# T3 construct: extracellular domain; also called 3a; FcgRIIIa
# T3 sequence (P08637 17-208): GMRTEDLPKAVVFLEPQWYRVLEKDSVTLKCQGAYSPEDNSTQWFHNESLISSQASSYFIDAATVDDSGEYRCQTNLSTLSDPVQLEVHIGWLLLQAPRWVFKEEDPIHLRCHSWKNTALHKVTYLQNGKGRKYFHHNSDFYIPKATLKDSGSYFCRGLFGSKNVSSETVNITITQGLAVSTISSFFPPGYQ
# Assay: SPR, binding relative to GpH7-A5/GpH7-B3/GpL16-k0 = 100
row,Binder,He/Con_3a
1,B5,57.7 % of control
2,B6,135 % of control
3,B7,68.7 % of control
4,B8,71.1 % of control
5,B9,103 % of control
6,B10,98 % of control
7,B11,121 % of control
8,B12,80.3 % of control
9,B13,30.5 % of control
10,B14,87 % of control
11,B15,79.8 % of control
12,B16,12.5 % of control
13,B17,59.7 % of control
14,B18,79.5 % of control
15,B19,62.2 % of control
16,B20,32.5 % of control
17,B21,37.1 % of control
18,B22,43.1 % of control
19,B23,58.8 % of control
20,B24,36.9 % of control
21,B25,88.1 % of control
22,B26,130 % of control
23,B27,41.2 % of control
24,B28,91.4 % of control

# Molecular target: T4, FcγRIIb extracellular domain with C-terminal His tag (human, UniProt P31994 43-217)
# T4 construct: extracellular domain; also called 2b; FcgRIIb
# T4 sequence (looked up): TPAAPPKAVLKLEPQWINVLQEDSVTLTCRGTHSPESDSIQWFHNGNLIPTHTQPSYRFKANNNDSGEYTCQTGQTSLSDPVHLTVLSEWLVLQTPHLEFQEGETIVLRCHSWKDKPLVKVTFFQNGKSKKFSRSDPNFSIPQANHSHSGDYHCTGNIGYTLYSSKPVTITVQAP
# Assay: as above
row,Binder,He/Con_2b
1,B5,35.3 % of control
2,B6,58.2 % of control
3,B7,49.9 % of control
4,B8,54.7 % of control
5,B9,80.9 % of control
6,B10,66.4 % of control
7,B11,39.5 % of control
8,B12,65.7 % of control
9,B13,16.2 % of control
10,B14,39.3 % of control
11,B15,60.3 % of control
12,B16,6.8 % of control
13,B17,31 % of control
14,B18,59.4 % of control
15,B19,51.5 % of control
16,B20,26.8 % of control
17,B21,19 % of control
18,B22,27.9 % of control
19,B23,35.4 % of control
20,B24,18.9 % of control
21,B25,72.9 % of control
22,B26,96.3 % of control
23,B28,73.1 % of control

# Molecular target: T1, FcγRIa extracellular domain with …
# Assay: SPR (Biacore), antibody captured, FcγR analyte; relative to GpH7-A5/GpH7-B3/GpL16-k0 = 100
row,Binder,He/Con_1a
1,B1,63.3 % of HeCon Ab
2,B2,65.8 % of HeCon Ab

# Molecular target: T2, FcγRIIa R
# Assay: SPR (Biacore T100); He/Con_2aR divided by He/Con_2b (FcγRIIa R over FcγRIIb)
# Protocol: as §1, §2
row,Binder,He_2aR/2b (IIaR/IIb)
1,B3,2.47 ratio
2,B4,1.9 ratio

# Molecular target: T3, FcγRIIIa extracellular domain with …
# Assay: SPR; ratio of He/Con_3a (FcγRIIIa) to He/Con_2b (FcγRIIb)
# Protocol: as §1, §2
row,Binder,He_3a/2b (IIIa/IIb)
1,B5,1.64
2,B6,2.33
3,B7,1.38
4,B8,1.3
5,B9,1.27
6,B10,1.48
7,B11,3.06
8,B12,1.22
9,B13,1.88
10,B14,2.21
11,B15,1.32
12,B16,1.84
13,B17,1.93
14,B18,1.34
15,B19,1.21
16,B20,1.21
17,B21,1.95
18,B22,1.54
19,B23,1.66
20,B24,1.95
21,B25,1.21
22,B26,1.35
23,B27,4.29
24,B28,1.25
